Test results reported in PMC12024163, “Competitive Ligand-Induced Recruitment of Coactivators to Specific PPARα/δ/γ Ligand-Binding Domains Revealed by Dual-Emission FRET and X-Ray Diffraction of Cocrystals” (Antioxidants, 2025).
No end group written: not given here. *: point of attachment. Biotin = O=C1N[C@H]2[C@H](CS[C@H]2CCCCC(=O)*)N1

B1: TRAP220 coactivator peptide, biotin-labeled (AAs 631–655) (peptide)
peptide: Biotin-PVSSMAGNTKNHPMLMNLLKDNPAQ
notes: thyroid hormone receptor-associated protein 220 (TRAP220), human, AAs 631–655, LXXLL motif LMNLL; also called ULight-TRAP220; ULight-TRAP; source: synthetic peptide (GenScript)
B2: SRC1 coactivator peptide, biotin-labeled (AAs 676–700) (peptide)
peptide: Biotin-CPSSHSSLTERHKILHRLLQEGSPS
notes: also called ULight-SRC1; SRC-1 M2; source: synthetic peptide (GenScript)
B3: CBP coactivator peptide, biotin-labeled (AAs 56–80) (peptide)
peptide: Biotin-SGNLVPDAASKHKQLSELLRGGSGS
notes: also called ULight-CBP; source: synthetic peptide (GenScript)
B4: PGC1α coactivator peptide, biotin-labeled (AAs 137–155) (peptide)
peptide: Biotin-EAEEPSLLKKLLLAPANTQ
notes: also called ULight-PGC1α; source: synthetic peptide (GenScript)
B5: NCoR2 corepressor peptide, biotin-labeled (AAs 2321–2341) (peptide)
peptide: Biotin-EHASTNMGLEAIIRKALMGKY
notes: NCoR2 (nuclear receptor corepressor 2, SMRT), human, AAs 2321–2341, LXXXIXXXL motif LEAIIRKAL; also called ULight-NCoR2; SMRT; source: synthetic peptide (GenScript)
B6: NCoR1 corepressor peptide, biotin-labeled (AAs 2255–2275) (peptide)
peptide: Biotin-ADPASNLGLEDIIRKALMGSF
notes: NCoR1 (nuclear receptor corepressor 1), human, AAs 2255–2275, LXXXIXXXL motif LEDIIRKAL; also called ULight-NCoR1; N-CoR ID2; source: synthetic peptide (GenScript)

Target: T1, Human PPARγ-LBD (amino acids 203–477 in isoform 1), amino-terminal His-tagged (human, UniProt P37231-2 203-477)
T1 construct: numbers count on: isoform 1; Form used in the FRET assays; mainly prepared as apo (unliganded) form; also called hPPARγ-LBD; NR1C3; source: Rosetta (DE3) pLysS cells, pET28a, purified (TALON, HiTrap Q, Superdex 75); not shown: His tag, N-terminal, kept
T1 sequence (looked up): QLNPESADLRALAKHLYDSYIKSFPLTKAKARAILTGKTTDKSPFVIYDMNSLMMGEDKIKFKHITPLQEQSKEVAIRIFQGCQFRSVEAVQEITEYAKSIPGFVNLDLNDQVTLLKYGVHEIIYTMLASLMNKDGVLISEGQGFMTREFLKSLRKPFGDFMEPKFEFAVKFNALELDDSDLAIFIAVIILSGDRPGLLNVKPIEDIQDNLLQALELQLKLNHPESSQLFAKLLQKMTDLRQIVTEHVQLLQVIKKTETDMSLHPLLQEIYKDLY
Assay: FRET or BRET; dual-emission TR-FRET: a FITC-coactivator peptide and a ULight-coactivator peptide together in one well with the His-tagged LBD and Tb anti-6×His antibody; agonist titrated (pemafibrate, seladelpar or pioglitazone); buffer A, room temperature
Conditions: both partners purified

Binder	maximal recruitment in dual-FRET with pioglitazone, that of FITC-CBP in the same well taken as 100 [FITC-CBP = 100]	maximal recruitment in dual-FRET with pioglitazone, that of FITC-TRAP in the same well taken as 100 [FITC-TRAP = 100]
B1	107	65.8
B2	52	57.1
B3	237	295

Target: T2, Human PPARδ-LBD (amino acids 170–441), amino-terminal His-tagged (human, UniProt Q03181 170-441)
T2 construct: Form used in the FRET assays; also called hPPARδ-LBD; PPARβ; source: Rosetta (DE3) pLysS cells, pET28a, purified (TALON, HiTrap Q, Superdex 75); not shown: His tag, N-terminal, kept
T2 sequence (looked up): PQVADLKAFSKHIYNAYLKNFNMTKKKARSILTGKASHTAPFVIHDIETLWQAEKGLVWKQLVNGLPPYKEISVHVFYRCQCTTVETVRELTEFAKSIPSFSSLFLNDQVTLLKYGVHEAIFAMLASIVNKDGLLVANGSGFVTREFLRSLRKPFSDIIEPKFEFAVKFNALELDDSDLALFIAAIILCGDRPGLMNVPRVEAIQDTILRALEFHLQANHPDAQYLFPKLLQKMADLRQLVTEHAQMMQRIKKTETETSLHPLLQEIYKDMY
Assay: as above
Conditions: both partners purified

Binder	maximal recruitment in dual-FRET with seladelpar, that of FITC-CBP in the same well taken as 100 [FITC-CBP = 100]	maximal recruitment in dual-FRET with seladelpar, that of FITC-TRAP in the same well taken as 100 [FITC-TRAP = 100]
B1	402	108
B2	156	55.5
B4	359	313
B3	508	372

Target: T3, Human PPARα-LBD (amino acids 200–468), amino-terminal His-tagged (human, UniProt Q07869 200-468)
T3 construct: Form used in the FRET assays; detected through the His tag with a Tb cryptate anti-6×His antibody; Routine preparations hold intrinsic fatty acids; also called hPPARα-LBD; NR1C1; source: Rosetta (DE3) pLysS cells, pET28a, purified (TALON, HiTrap Q, Superdex 75); not shown: His tag, N-terminal, kept
T3 sequence (looked up): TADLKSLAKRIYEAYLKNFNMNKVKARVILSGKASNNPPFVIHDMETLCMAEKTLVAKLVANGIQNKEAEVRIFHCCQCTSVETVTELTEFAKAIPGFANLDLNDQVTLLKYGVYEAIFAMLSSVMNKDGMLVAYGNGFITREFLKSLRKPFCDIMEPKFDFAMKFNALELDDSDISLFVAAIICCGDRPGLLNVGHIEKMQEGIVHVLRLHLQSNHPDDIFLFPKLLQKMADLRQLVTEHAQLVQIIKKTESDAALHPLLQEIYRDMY
Assay: as above
Conditions: both partners purified

Binder	maximal recruitment in dual-FRET with pemafibrate, that of FITC-CBP in the same well taken as 100 [FITC-CBP = 100]	maximal recruitment in dual-FRET with pemafibrate, that of FITC-TRAP in the same well taken as 100 [FITC-TRAP = 100]
B1	63.3	75.8
B2	115	77
B4	108	150
B3	431	508

Target: T1, Human PPARγ-LBD (amino acids 203–477 in …)
Assay: FRET or BRET; single-emission TR-FRET (LANCE Ultra); His-tagged LBD (9.5 µL of 400 nM) with Tb cryptate anti-6×His antibody, biotin peptide (5 µL of 1 µM) with ULight-Streptavidin or FITC-Ahx peptide; buffer A (20 mM HEPES pH 7.4, 150 mM NaCl, 1 mM EDTA, 1 mM DTT, 0.005% Tween 20, 0.1% fatty acid-free BSA); room temperature, 2 h; without agonist (vehicle 1% DMSO)
Conditions: both partners purified

Binder	binding result
B5	binds

Target: T3, Human PPARα-LBD (amino acids 200–468), …
Assay: as above
Conditions: both partners purified

Binder	binding result
B5	binds
B6	binds

Target: T1, Human PPARγ-LBD (amino acids 203–477 in …)
Assay: FRET or BRET; dual-emission TR-FRET: ULight-corepressor peptide and FITC-coactivator peptide together in one well with the His-tagged LBD and Tb anti-6×His antibody; agonist titrated from vehicle (pemafibrate, seladelpar or pioglitazone); buffer A, room temperature
Conditions: both partners purified

Binder	binding result
B6	binds

Target: T2, Human PPARδ-LBD (amino acids 170–441), …
Assay: as above
Conditions: both partners purified

Binder	binding result
B5	binds
B6	binds

Target: T1, Human PPARγ-LBD (amino acids 203–477 in …)
Assay: FRET or BRET; single-emission TR-FRET as a1, with the agonist titrated (pemafibrate for PPARα-LBD, seladelpar for PPARδ-LBD, pioglitazone for PPARγ-LBD); signal ratios normalised to 1% DMSO
Conditions: both partners purified

Binder	EC50 of pioglitazone (the ligand is titrated) for recruitment of the peptide [nM]
B1	1910
B2	2110
B3	637

Target: T2, Human PPARδ-LBD (amino acids 170–441), …
Assay: as above
Conditions: both partners purified

Binder	EC50 of seladelpar (the ligand is titrated) for recruitment of the peptide [nM]
B1	54.8
B2	53.5
B4	48.1
B3	33.2

Target: T3, Human PPARα-LBD (amino acids 200–468), …
Assay: as above
Conditions: both partners purified

Binder	EC50 of pemafibrate (the ligand is titrated) for recruitment of the peptide [nM]
B1	130
B2	87.8
B4	82
B3	60.9
